Earlier results as cited in article PMC6482830.
pKd: −log10 of the molar value.

Target: eIF4E (Homo sapiens) (UniProt P06730)
Assay: ITC

Chain of UniProt P06730 (P06730 2-217): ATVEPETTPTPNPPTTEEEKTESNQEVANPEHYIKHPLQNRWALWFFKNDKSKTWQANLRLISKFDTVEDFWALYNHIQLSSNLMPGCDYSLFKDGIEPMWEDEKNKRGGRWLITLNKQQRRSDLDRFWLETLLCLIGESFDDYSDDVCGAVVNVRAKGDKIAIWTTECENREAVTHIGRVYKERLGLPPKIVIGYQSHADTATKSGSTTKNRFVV

pKd: 7.30
Substance: 4E-BP1 peptide (from UniProt Q13541)
